# Data published in patent US20260097076A1 (ELPIS BIOPHARMACEUTICALS, published 2026).
# B1: TC-03 (anti-TACI antibody in scFv format) (scFv, not shown: small tags and cut ends)
# scFv: EVQLVESGGGLVQPGGSLRLSCATSGFTVNSDYMSWVRQSPEKGLEWVSFIYRGGSTYYADSVKGRFTVSRDTSKNTLYLQMNSLRVEDTAVYYCARGLGSSSDYWGQGTLVTVSSGGGGSGGGGSGGGGSSYELTQPHSVSESPGKTVTISCTRSSGSIANNYVQWYRHRPGSAPSTVIFEDDHRPSEVPDRFSGSIDSSSNSASLTISGLKTEDEADYYCQSYDGIDHYVFGTGTKLTVL
# notes: Human scFv from mRNA display (live cell selections), VH-(G4S)3-VL
# How the values were obtained:
# [1] = biological target: T1, Transmembrane activator and CAML interactor (TACI) on cells (UniProt O14836 1-293, limits assumed); assay: flow cytometry on MM1R cells (endogenous TACI)
# T1 construct: whole, on cells; also called tumor necrosis factor receptor superfamily member 13B (TNFRSF13B)
# T1 sequence (looked up): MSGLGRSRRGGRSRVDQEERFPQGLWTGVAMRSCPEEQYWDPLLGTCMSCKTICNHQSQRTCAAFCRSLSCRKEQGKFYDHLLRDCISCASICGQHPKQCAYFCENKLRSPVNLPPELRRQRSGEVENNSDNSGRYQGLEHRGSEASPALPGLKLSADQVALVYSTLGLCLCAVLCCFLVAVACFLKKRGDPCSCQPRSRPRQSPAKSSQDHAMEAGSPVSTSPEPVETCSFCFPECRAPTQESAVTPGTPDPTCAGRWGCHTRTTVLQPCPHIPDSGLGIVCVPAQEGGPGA
# Experimental: (§1) Cells were spun down at 1200 rpm for 6 minutes at 4° C. to remove primary antibodies. Cells were then washed once with 200 μL of full medium per well. Samples were detected with premixed anti-His Biotin Streptavidin Alexa fluor 647 by adding 100 μL of diluted secondary antibody and incubated at 4° C. for 30 minutes in the dark. Samples were spun down at 1200 rpm for 5 minutes at 4° C. and washed twice with 200 μL of 1×PBS per well. Reconstituted samples in 200 μL of 1×PBS and read on Attune NxT cytometer. Analysis was done by Attune NxT software plotting the overlaying the histogram of anti-BCMA scFvs binding onto both negative and target cell lines. […] The BCMA cell binding affinity for exemplary anti-BCMA antibodies (in scFv format) was also generated with serial diluted scFvs as described above.
# (§2) Anti-TACI scFv binders have been identified through Anti-TACI supernatant FACS screening assay with JVM2, MM1.R and RPMI8226 cell lines as described in above supernatant FACS screening assay. 200 nM of purified scFvs were subjected into FACS binding assay with TACI negative cell lines K562, H929 and TACI expressing cancer cell lines of JVM2, MM1.R, RPMI8226. The assay procedure and data analysis were described in Example 1 above.
# [2] = biological target: T1, Transmembrane activator and CAML …; assay: flow cytometry on MM1S cells (endogenous TACI)
# [3] = biological target: T1, Transmembrane activator and CAML …; assay: flow cytometry on RPMI8226 cells (endogenous TACI)
# Experimental: as §1, §2
# soluble recombinant TACI = biological target: T2, soluble recombinant TACI (UniProt O14836 1-165, limits assumed); assay: ELISA, recombinant TACI immobilized on 384 well plate
# T2 construct: Immobilized on a 384 well plate; construct not described
# T2 sequence (looked up): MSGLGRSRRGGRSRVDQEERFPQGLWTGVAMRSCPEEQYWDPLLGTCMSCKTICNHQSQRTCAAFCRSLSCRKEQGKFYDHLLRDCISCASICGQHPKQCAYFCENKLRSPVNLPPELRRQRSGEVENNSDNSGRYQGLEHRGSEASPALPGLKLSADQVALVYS
# Experimental: Purified anti-TACI scFvs were subjected to ELISA binding assay. Recombinant TACI and negative protein were immobilized on the 384 well plate. 200 nM of anti-TACI scFv clones were serial diluted and tested for binding in the assay as described above.
# [4] = biological target: T1, Transmembrane activator and CAML …; assay: flow cytometry on JVM2 cells (endogenous TACI)
# Experimental: as §1, §2
binder,measurement,setting,value
B1,EC50,[1],14 nM
same,EC50,[2],46.7 nM
same,EC50,[3],830 nM
same,binding result,soluble recombinant TACI,"no binding (tested: 200 nM, serial diluted)"
same,EC50,[4],26.8 nM
